Reference: patent US20100135951

System: Ser90 mutant DDX3

GSK3
phosphorylation (32P incorporation): GSK3 fails to phosphorylate DDX3 with a point mutation at Ser90
